Assays:
[1] = test system: MS2 coat protein; assay: apparent KD of MS2 coat protein, switch ON state; designed switch direction (-1 OFF switch, 1 ON switch): -1; higher = weaker reporter binding; settings: FMN input: 0 or 200 uM; Eterna round: R93 (includes R88 designs)
In short: (§1)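 Designed RNA switches were made by on-chip transcription from Illumina sequencing clusters and then titrated with SNAP-549-labelled MS2 coat protein. Twofold steps ran from 0.7 or 1.5 nM to 3 µM, each lasting 0.8–1.5 h early and 10–20 min late, in 100 mM Tris-HCl pH 7.5, 80 mM KCl, 4 mM MgCl2, without or with constant ligand. Apparent KD is the per-design median of normalised cluster binding-curve fits.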

[2] = test system: MS2 coat protein; assay: apparent KD of MS2 coat protein, switch OFF state (with FMN for OFF switches, without FMN for ON switches); designed switch direction (-1 OFF switch, 1 ON switch): -1; higher = weaker reporter binding; settings: FMN input: 0 or 200 uM; Eterna round: R93 (includes R88 designs)
In short: as §1

Sequence | apparent KD of MS2 coat protein [1] [nM] | apparent KD of MS2 coat protein [2] [nM]
AAAAAGUCAGGAUAUACAGAUAAAAAAACGAAAAAAAAUCUGUAGAAGGGACAUGAGGAUCACCCAUGUAAAAA [Ex 4 May 1] | 61.8 | 40.1
AAAAAGUGAGGAUAUACAUGAGGAUCACCCAUGUGAAAGUCGAAAAAAAAGACAAGAAGUAGAAGGCACAAAAA [Fiskers Exclusion 3 D2 variant] | 24.3 | 29.3
AAAAAGUGAGGAUAUGAAAAUAAAAAAAACAAACAAAUAAAUCAGAAGGCACAUGAGGAUCACCCAUGUAAAAA [JR_Exc004_Sub1202] | 36.8 | 26.2
AAAAAGUGAGGAUAUGCAGUGUCCUGUAGACGCGAGCACUUGUAGAAGGCACAUGAGGAUCACCCAUGUUUAAA [EX4 Malc#28] | 24 | 22.1
AAAAAGUGAGGAUAUGGUAAAAAAAAAAAAAAAAAAAACCUCCAGAAGGCACAUGAGGAUCACCCAUGUCAAAA [Jolly's Folly 3 - Jieux - Exclusion 4] | 44.7 | 19
AAAAAUGGAGGAUAUACAUGAGGAUCACCCAUGUGUGACUAUACUAAGCGCUCCUCAGGUAGAAGGCCAAAAAA [Gilly Gone Silly 16 - Jieux - Exclusion 3] | 83.5 | 99.5
AAAACUGGAGGAUAUACAUGAGGAUCACCCAUGUGUGGAUGAGCUGUGUCGGCGUCAGGUAGAAGGCCACAAAA [Gilly Gone Silly 35 - Jieux - Exclusion 3] | 36.3 | 43.1
AAAACUGGAGGAUAUACAUGAGGAUCACCCAUGUGUGGGUAUACUGUGUCGGCGUCAGGUAGAAGGCCAAAAAA [Gilly Gone Silly 29 - Jieux - Exclusion 3] | 146 | 151
AAAACUGGAGGAUAUACAUGAGGAUCACCCAUGUGUGGGUGGGCUGUGUCGGCGUCAGGUAGAAGGCCACAAAA [Gilly Gone Silly 33 - Jieux - Exclusion 3] | 201 | 108
AAAAGGUGAGGAUAUAGGAAAAUAAAAUAAAAUAAAAUAAACUAGAAGGCACAUGAGGAUCACCCAUGUAAUAA [LROPPY Exclusion 4 - v03_deltaG=3.54 break up the As] | 25.1 | 17
AAAAGGUGAGGAUAUAUGAAAAAAAAAAAAAAAAAAAAAAAAUAGAAGGCACAUGAGGAUCACCCAUGUAAAAA [LROPPY Exclusion 4 - v04_ on a whim] | 36.9 | 27.2
AAAAGUGGAGGAUAUACAUGAGGAUCACCCAUGUGUAAAAAUAAAUACACAAAAGAAAGUAGAAGGCCACAAAG [Mat - Exclusion 3 - Mayanna mod - D117] | 32.2 | 128
AAAAUGUCAGGAUAUGUAGCAAAAGGUGAUCAAAAAAAGCUACAGAAGGGACAUGAGGAUCACCCAUGUAAAAA [Ex4: 935] | 1020 | 2870
AAACCACAUGAGGAUCACCCAUGUGAGGAUAUGAACGAAAAUAAAUAAAAAUAAAAGUUCAGAAGGCACAAAAA [66%, Wbt, 12] | 21.3 | 23.6
AAACUACUAGGAUAUACAACGGUGUCCUAACUACUAAGAAGACAUGAGGAUCACCCAUGUAGAAGGAGUAGUGA [Sosogeen] | 50.3 | 37.8
AAAGAUGCAGGAUAUACAUGAGGAUCACCCAUGUUAGACCUGAAAAGGGAAAAAGAAAGUAGAAGGGCAUAAAA [Ex 3 May 32] | 13.4 | 17
AAAGAUGGAGGAUAUACAUGAGGAUCACCCAUGUAGAAAAAAAAUUGGGAAAAAGAAAGUAGAAGGCCAAAAAA [Ex 3 May 43] | 38.7 | 72.9
AAAGGACGAGGAUAUACAUGAGGAUCACCCAUGUAAAAAACGUAAUAAAAUAACUUAUGUAGAAGGCGUCCAAA [Mat - Exclusion 3 - Eli mod - D98] | 26.3 | 214
AAAGGACGAGGAUAUACAUGAGGAUCACCCAUGUAAAAAGCAUAAUAAAAGAACUUAUGUAGAAGGCGUCCAAA [69%, Moding Meechl, 5] | 41 | 189
AAAGUGUGAGGAUAUGUCAAAGGUCACGAAAGUGACAAAGGACAGAAGGUACAUGAGGAUCACCCAUGUAAAAA [65% + different segment] | 39.8 | 32
AAAUAGCAAGGAUAUACAUGAGGAUCACCCAUGUGACCCAGGUAUGGCAUAGACUAGAGUAGAAGGUGCAAAUA [Mod 5 of Ex 3 Tesla 8 - Jieux - Exclusion 3] | 88.1 | 114
AAAUGACAUGAGGAUCACCCAUGUCAGGAUAUGACUUGAAAAAAAAAAAAAAAACAUGUCAGAAGGGACAUGAA [Design 48: Sub-opt E] | 17.2 | 16.8
